According to the supplement of paper PMC9170038:

System: K4 kissing-loop RNA reporter
Experiment: apparent KD of K4 kissing-loop reporter; higher = weaker reporter binding
Conditions: Eterna round: R107
Description: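 RNA-MaP round R107: designed RNA switches with theophylline, tryptophan, arginine or FMN aptamers are transcribed on-chip within common flanks. They are titrated with a labelled K4 kissing-loop RNA reporter in RNA-MaP buffer (100 mM Tris pH 7.5, 80 mM KCl, 4 mM MgCl2), without ligand or with the indicated ligand. Median apparent KD per design.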

[1] = input ligand: theophylline 20 uM
[2] = input ligand: tryptophan 2.4 mM
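Also: bound reporter read as fluorescence of individual clusters on recovered sequencing chips by microscopy, with normalized cluster intensities fitted with a binding model.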

| Sequence | apparent KD of K4 kissing-loop reporter (input ligand: FMN 200 uM) | apparent KD of K4 kissing-loop reporter (input ligand: arginine 13.2 mM) | apparent KD of K4 kissing-loop reporter (input ligand: none) | apparent KD of K4 kissing-loop reporter [1] | apparent KD of K4 kissing-loop reporter [2] |
| --- | --- | --- | --- | --- | --- |
| AGAAACUUGUAUACAGGGCAUGCCAGAGAUACCAGUCAAAUGGAAGGCCCUUGGCAGCUCAGGCGAGUGAUGUUCGCAGGCUGAC [Exclusion Theophylline A GF 20] | 132 nM | 113 nM | 142 nM | 145 nM | 105 nM |
| AGAACUGUCUGAGAUACCAGCCAUAGGAGUGAUGUUCCUAGCUCCACAAAGUGGAGCCAUAGCCCUUGGCAGCUCAGACAGUUCA [Omei KL Theo B SS A v7] | 1040 nM | 763 nM | 1150 nM | 771 nM | 823 nM |
| AGACUACCACACUGUCAAUAGACAGUGAACUAGGAUAUGCUGAUAAGCAGAAGGAGUGAUGUUCCUUGGUAGUCAAUAAAAUAAU [FmnAX 13 U67] | 308 nM | 270 nM | 298 nM | 330 nM | 289 nM |
| AGACUACCACACUGUCAAUAGACAGUGAAUUAGGAUAUGCUGAUAAGCAGAAGGAGUGAUGUUCCCAGGUAGUCAAUAAAAUAAU [FmnAX 13 U30+C66] | 169 nM | 124 nM | 167 nM | 202 nM | 177 nM |
| AGACUACCACACUGUCAAUAGACAGUGAGCUAGGAUAUGCUGAUAAGCAGAAGGAGUGAUGUUCCUCGGUAGUCAAUAAAAUAAU [FmnAX 13 G29+C67] | 373 nM | 357 nM | 364 nM | 503 nM | 378 nM |
| AGACUACCACACUGUCAAUAGACAGUGAGGUAGGAUAUGCUGAAAAGCAGAAGGACCAGUGAUGUUGGUAGGUAGUCAAAAUAAA [FmnAX 11 #SwitchBubble #StaticStem #K4Early] | 185 nM | 112 nM | 84.8 nM | 128 nM | 74.9 nM |
| AGAGAUAUAUGAGGAUAUGGGUUUGUUAAUGAGUUAGUUUUAGUGUUGUUUGGUUAGUGAUGUUAUUUAGAAGGCGUGAGUGAUG [aatrmullin] | 94.2 nM | 62.3 nM | 61.4 nM | 78.4 nM | 62.2 nM |
| AGAGUCAGACAAAAGUCUGGCUCAGCCGAAGGAGCGUCCGAAAGGACAGGUAGGUCGCGGUUGCAUGAGUGAUGUUGAUGUUUUU [KL-SSArg-A23] | 546 nM | 372 nM | 425 nM | 559 nM | 500 nM |
| AGAGUUAUGCGAGGAUAUGCAGUUAGUACUCAAAGAGUACUAACGGCAGAGUGAUGUUCUGUGAAAGCAGAAGGUGCAUAACUCA [Omei KL FMN B SS B v8] | 195 nM | 837 nM | 1370 nM | 857 nM | 923 nM |
| AGAUUCGACACGGCCGCCACUUCCGGUGGCUGGUGUCAUGGUGCGCGUGAGUGAUGUUUAUGUGGGAGGACCGGGUGUUGAGUCU [whbob_Ex_Tryp_B_w42] | 616 nM | 393 nM | 654 nM | 559 nM | 704 nM |
| AGCAAAACCAAAGGAUAUUGGCAGUCGAUGUACCAUGUUCCCGUAGCAGGUUGAGUGAUGUUUAAGCAAGAAGGUUGGCGUUUGG [theeternabot_exclusion_KL_FMN_B_12] | 560 nM | 302 nM | 436 nM | 457 nM | 368 nM |
| AGCAGUGAUGUUGCAUUUAAAAUGACCGAUACCAGUAUCGAUAGAUACCCUUGGCAGCGGAUUUCCGCAACGACUAGGAAACUAG [Ex Theophylline A K4 15] | 324 nM | 377 nM | 436 nM | 504 nM | 327 nM |
| AGCCAGCGUACAUCACUCUGGCUGCUGGAUACCAGCUCGGAAACGAGCCCUUGGCAGCCAGAACUUGCAGUGAUGUUGCAAGUAA [Design12] | 460 nM | 276 nM | 402 nM | 458 nM | 345 nM |
| AGCGCCUAAGCCGAUACCAGAAACGCGGUGCGUCGCACGAUUAACUAGGAAAGUGAUGUUUUCCCUUGGCAGCGGGACCUGUGAG [theeternabot_exclusion_KL_Theo_B_11] | 119 nM | 116 nM | 134 nM | 133 nM | 135 nM |
| AGCGCUGCCUGAGGAUAUAGAAACGAGUGAUGUUCGUGGAUUGAUACCAGUGAUGUUGGCCUAUUUCUAGAAGGCAGGCGAUCGU [Exclusion FMN B GF2] | 172 nM | 97.1 nM | 136 nM | 88.2 nM | 114 nM |
| AGGAUCCGUCGACAAAAGUCGACAUAAGCCAAGGAUAUGACGAAAGUCAGAAGGUGGUCAUAAGACCAGUGAUGUUGGUGGAUCC [FmnA 13 #SwitchBubble #K4Late] | 909 nM | 279 nM | 526 nM | 309 nM | 457 nM |

| Sequence | apparent KD of K4 kissing-loop reporter (input ligand: FMN 200 uM) | apparent KD of K4 kissing-loop reporter (input ligand: arginine 13.2 mM) | apparent KD of K4 kissing-loop reporter (input ligand: none) | apparent KD of K4 kissing-loop reporter [1] | apparent KD of K4 kissing-loop reporter [2] |
| --- | --- | --- | --- | --- | --- |
| AGGUACAAAAGUACCGCUAGAUCCACGGAAGGAGCGCGCGAAAGCGCAGGUAGGUCGCCGGGCAGUGAUGUUGCCGGAUCUAGCA [Omei KL Arginine A SS A v7] | 134 nM | 138 nM | 126 nM | 165 nM | 144 nM |
| AGGUUUUGAUUAGGAUAUGCACUGAGGAGGAGAAUAUAGUGAUGUUAUAUAAGAGGAAUUAGUAGAGUAGAAGGGAUUGAGGUUU [SSFMNB.T] | 248 nM | 167 nM | 131 nM | 124 nM | 196 nM |
| AGUAAUGAGUGAUGUUCAAGUAGUAAGGAUACCAGUAAUUCAAAAUGCCCUUGGCAGCUUAGCGCUACCAAUAGAUGGGUAGUGG [Theophilline A V3 (+6G)] | 243 nM | 250 nM | 286 nM | 297 nM | 160 nM |
| AGUACAAUGGCGGCCGCCACUCAAUGGCAGAUCAAAGAUCUGCAUCACUCAGUGAUGUUGAGUGAGAGGACCGGGCCUUUGUACA [Omei KL Tryp B SS B v7] | 564 nM | 517 nM | 563 nM | 505 nM | 157 nM |
| AGUACAAUUGCGGCCGCCACUCAACGCAGAUCAAAGAUCUGCAUUCACUCAGUGAUGUUGAGUGAGAGGACCGGGCAUUUGUACA [Omei KL Tryp B SS B v2] | 676 nM | 481 nM | 548 nM | 512 nM | 164 nM |
| AGUGCACUGUCAGGAUAUAUACAGUGAUGUUGUGUAUGUCGGCAAGUCAAAGACUUGCCAUUCUGUGUAGAAGGGACUGUGUACA [#04 K4 FMN B Exclusion] | 544 nM | 203 nM | 222 nM | 202 nM | 223 nM |
| AGUGUUAGGUUAGAUACCAGCCGUCUGUGGAUAAUCCACAGACCGCCAGUGAUGUUGGCAGGCCCUUGGCAGCUAACAGGACAGA [Riedingeus] | 239 nM | 215 nM | 220 nM | 153 nM | 208 nM |
| AGUUCUUGCCGAAGGAGCGAGGCAGAGUGAUGUUCUGCAAAGAGGUCGAAAGACCUCCUGCCUCAGGUAGGUCGCGGCAUGAACA [Omei KL Arginine B Exc A v5] | 814 nM | 942 nM | 652 nM | 509 nM | 1260 nM |
| AUACAGCGAAGCGCUAGUGAUGUUAGCGAAGGAGCGACUCAGGAGUCAGGUAGGUCGCGCUAAACAGGUUACGAGAGUAACCAGU [Arg A Ex t1] | 142 nM | 120 nM | 140 nM | 137 nM | 113 nM |
| AUAUCUGAUAGCAGUGAUGUUGCUUCAGAUACCAGACGAGAUCAUGUCCCUUGGCAGCUGACACGGCACGUGCUAGGUUAGAUGA [Theo A Ex t2] | 101 nM | 92.6 nM | 101 nM | 103 nM | 101 nM |
| AUAUUACUAUACGAUACCAGCCCUAACACUAGUGACGCGGUAAUAGUGAUGUUGUAACCCGGCCCUUGGCAGCGUAAUCAUGGAA [theeternabot_sameState_KL_Theo_B_7] | 529 nM | 395 nM | 519 nM | 524 nM | 475 nM |
| AUCAGUGUCUCACGCUACGACAUAUACGAUACCAGUCACCCUGAUGACCCUUGGCAGCGUCAACGAGUGAUGUUCGGGUUCUAGA [theeternabot_sameState_KL_Theo_A_1] | 345 nM | 241 nM | 404 nM | 389 nM | 309 nM |
| AUGACUCAAUAGUGAGUGAUGUUCACUGGACGAGGACCGGUACGGCCGCCACUCGAGAGUGGUGGACACUGUGUCACUGAGUCAU [Tryp A Ex t1] | 180 nM | 166 nM | 154 nM | 194 nM | 496 nM |
| AUGCGCGCGGCGGCCGCCACUCGCAUGAGAGUGAUGUUCUCGCCGUGCCCGCAAGGGUGCGGUGUGAGGACCGGGCCGGGCUGCG [#2 Same State - Tryptophan B Attempt #19 (HarryS)] | 562 nM | 143 nM | 194 nM | 154 nM | 302 nM |
| AUGCGCGUGCGAUGGAAAUCGCACGCGCAUCGAGGACCGGUACGGCCGCCACUCGCUCGCGCCGAGUGAUGUUCGGCCGGCGAAC [#2 SameState - Tryptophan_A Attempt #3 (HarryS)] | 180 nM | 162 nM | 283 nM | 329 nM | 599 nM |
